Data reported in PMC8983682 (2022).

B1: 1G01 IgG (antibody, V domains shown)
VH: EVQLVESGGRALRPGGSLRLSCAASGFKFDDYAMSWVRQVPGKGLEFVSGLNWNGDITAYTDSVKGRFTVSRDNAKNSLYLHINSPKPEDTALYYCARTSSWGDYTRGPEPKITWYFDLWGRGTLVTVSS
VL: DIQLTQSPSFLSASVGDRITITCRASQGIDGYLAWYQQRPGKAPNLLIYAASLLQSGVPSRFSGSGYGTEFTLTISSLQPEDFATYYCQHLDSYPLFTFGPGTKVDIK
B2: CD6 IgG (antibody, V domains shown)
VH: QVKLQESGGGLVQPKGSLKLSCAASGFTFNTYAMNWVRQAPGKGLEWVARIRSKSNNYATFYADSVKDRFTISRDDSQSMLYLQMHNLKTDDTAMYYCVRPSIYYYASGYLDVWGAGTTVTVSS
VL: QIVLSQSPAILSASPGEKVTMTCRTSSSVSYMHWYQQKPGSSPKPWIYATSNLASGVPFRFSGSGSGTSYSLTISRVEAEDAATYYCQQWNSNPPTFGGGTKLEIK

Molecular target: N1-MI15-WT (recombinant soluble NA head of A/Michigan/45/2015 fused to hVASP) (influenza A virus A/Michigan/45/2015)
Assay: BLI

| Binder | Kd |
| --- | --- |
| B1 | < 0.001 nM |
| B2 | 1.3 nM |
